The results in this text go back to patent US20220402995A1 (TOSOH, published 2022).

Positions count from the first letter of the chain named.

The labels stand for the following.
B1: AAV-binding protein No. 138 (AVR8g + Gly361Cys, Gly(Ser)390Gly) (receptor)
chain: MGSAGESDQITLPKNEVQLNAYVLQEPPKGETCTYDWQLITHPRDYSGEMECEHSQILKLSNLTPGLYEFKVIVEGQNAHGEGYVNVTVEPEPRKNRPPIAIVSPQFQEISLPTTSTVIDGSQSTDDDKIVQYHWEELKGPLREEKISEDTAILKLSKLVPGNYTFRLTVVDSDGATDSTTANLTVNKAVDHHHHHH
notes: Gly(Ser)390Gly read as Ser390 of AVR8g back to the wild-type Gly, so Gly390Ser is not applied
B2: AAV-binding protein No. 132 (AVR8g + Gln327His, Glu378Val) (receptor)
chain: B1 chain with Q18H, C52G, E69V, G81S
B3: AAV-binding protein No. 136 (AVR8g + Glu335Val, Thr343Ser) (receptor)
chain: B1 chain with E26V, T34S, C52G, G81S
B4: AVR10 (AAV-binding protein No. 143; AVR8g + Val381Ala, Ile382Val) (receptor)
chain: B1 chain with C52G, V72A, I73V, G81S
B5: AAV-binding protein No. 137 (AVR8g + Thr341Pro, Phe379Ser) (receptor)
chain: B1 chain with T32P, C52G, F70S, G81S
B6: AAV-binding protein No. 135 (AVR8g + Glu335Gly, Gln386Arg) (receptor)
chain: B1 chain with E26G, C52G, Q77R, G81S
B7: AAV-binding protein No. 144 (AVR8g + Val383Ala, Gln415Arg) (receptor)
chain: B1 chain with C52G, V74A, G81S, Q106R
B8: AAV-binding protein No. 140 (AVR8g + Leu372Pro, Val396Ala) (receptor)
chain: B1 chain with C52G, L63P, G81S, V87A
B9: AAV-binding protein No. 150 (AVR8g + Val396Ala, Gln441Arg, Lys448Glu) (receptor)
chain: B1 chain with C52G, G81S, V87A, Q132R, K139E
B10: AAV-binding protein No. 145 (AVR8g + Trp346Cys, Arg353Cys, His389Arg) (receptor)
chain: B1 chain with W37C, R44C, C52G, H80R, G81S
B11: AAV-binding protein No. 141 (AVR8g + Leu376Pro, Gly(Ser)390Gly) (receptor)
chain: B1 chain with C52G, L67P
notes: as for B1
B12: AAV-binding protein No. 147 (AVR8g + Phe379Cys, Gln432Leu, Ser488Leu) (receptor)
chain: B1 chain with C52G, F70C, G81S, Q123L, S179L
B13: AAV-binding protein No. 133 (AVR8g + Gln327Leu, Lys(Asn)371Asp) (receptor)
chain: B1 chain with Q18L, C52G, N62D, G81S
notes: Asn371 of AVR8g replaced by Asp
B14: AAV-binding protein No. 146 (AVR8g + Leu372Gln, Leu376Pro, Val394Asp) (receptor)
chain: B1 chain with C52G, L63Q, L67P, G81S, V85D
B15: AAV-binding protein No. 148 (AVR8g + Glu384Val, Gln432Arg, Ile456Val) (receptor)
chain: B1 chain with C52G, E75V, G81S, Q123R, I147V
B16: AAV-binding protein No. 149 (AVR8g + Val394Ile, Asn395Ser, Thr426Ala) (receptor)
chain: B1 chain with C52G, G81S, V85I, N86S, T117A
B17: AAV-binding protein No. 139 (AVR8g + Leu369Gln, Pro374Leu) (receptor)
chain: B1 chain with C52G, L60Q, P65L, G81S
B18: AAV-binding protein No. 134 (AVR8g + Asn329Ile, Val499Ile) (receptor)
chain: B1 chain with N20I, C52G, G81S, V190I
B19: AAV-binding protein No. 142 (AVR8g + Glu378Gly, Arg403His) (receptor)
chain: B1 chain with C52G, E69G, G81S, R94H
B20: AAV-binding protein No. 58 (AVR2 + Ile319Phe) (receptor)
chain: B1 chain with D8V, I10F, C52G, E53K, N62K, G81S, E90K, R167S, D178N
B21: AAV-binding protein No. 59 (AVR2 + Ile319Asn) (receptor)
chain: B1 chain with D8V, I10N, C52G, E53K, N62K, G81S, E90K, R167S, D178N
B22: AAV-binding protein No. 72 (AVR2 + Val394Ala) (receptor)
chain: B1 chain with D8V, C52G, E53K, N62K, G81S, V85A, E90K, R167S, D178N
B23: AAV-binding protein No. 76 (AVR2 + Asn492Asp) (receptor)
chain: B1 chain with D8V, C52G, E53K, N62K, G81S, E90K, R167S, D178N, N183D
B24: AAV-binding protein No. 77 (AVR2 + Leu321Pro, Ile409Val) (receptor)
chain: B1 chain with D8V, L12P, C52G, E53K, N62K, G81S, E90K, I100V, R167S, D178N
B25: AAV-binding protein No. 70 (AVR2 + Val383Ala) (receptor)
chain: B1 chain with D8V, C52G, E53K, N62K, V74A, G81S, E90K, R167S, D178N
B26: AAV-binding protein No. 60 (AVR2 + Lys323Glu) (receptor)
chain: B1 chain with D8V, K14E, C52G, E53K, N62K, G81S, E90K, R167S, D178N
B27: AAV-binding protein No. 62 (AVR2 + Leu328Pro) (receptor)
chain: B1 chain with D8V, L19P, C52G, E53K, N62K, G81S, E90K, R167S, D178N
B28: AAV-binding protein No. 63 (AVR2 + Tyr331His) (receptor)
chain: B1 chain with D8V, Y22H, C52G, E53K, N62K, G81S, E90K, R167S, D178N
B29: AAV-binding protein No. 67 (AVR2 + Pro337Gln) (receptor)
chain: B1 chain with D8V, P28Q, C52G, E53K, N62K, G81S, E90K, R167S, D178N
B30: AAV-binding protein No. 66 (AVR2 + Leu333Pro) (receptor)
chain: B1 chain with D8V, L24P, C52G, E53K, N62K, G81S, E90K, R167S, D178N
B31: AAV-binding protein No. 69 (AVR2 + Thr350Ser) (receptor)
chain: B1 chain with D8V, T41S, C52G, E53K, N62K, G81S, E90K, R167S, D178N
B32: AAV-binding protein No. 74 (AVR2 + Ser476Gly) (receptor)
chain: B1 chain with D8V, C52G, E53K, N62K, G81S, E90K, R167G, D178N
B33: AAV-binding protein No. 71 (AVR2 + His389Asp) (receptor)
chain: B1 chain with D8V, C52G, E53K, N62K, H80D, G81S, E90K, R167S, D178N
B34: AAV-binding protein No. 80 (AVR2 + Gln365Arg, Gly392Cys) (receptor)
chain: B1 chain with D8V, C52G, E53K, Q56R, N62K, G81S, G83C, E90K, R167S, D178N
B35: AAV-binding protein No. 78 (AVR2 + Leu328Pro, Ile366Phe) (receptor)
chain: B1 chain with D8V, L19P, C52G, E53K, I57F, N62K, G81S, E90K, R167S, D178N
B36: AAV-binding protein No. 82 (AVR2 + Ser476Arg, Thr490Ser) (receptor)
chain: B1 chain with D8V, C52G, E53K, N62K, G81S, E90K, D178N, T181S
B37: AAV-binding protein No. 64 (AVR2 + Val332Ala) (receptor)
chain: B1 chain with D8V, V23A, C52G, E53K, N62K, G81S, E90K, R167S, D178N
B38: AAV-binding protein No. 83 (AVR2 + Ile319Ser, Thr320Ile, Lys399Glu) (receptor)
chain: B1 chain with D8V, I10S, T11I, C52G, E53K, N62K, G81S, R167S, D178N
B39: AAV-binding protein No. 68 (AVR2 + Tyr(Cys)342Arg) (receptor)
chain: B1 chain with D8V, C33R, C52G, E53K, N62K, G81S, E90K, R167S, D178N
notes: Cys342 of AVR2 replaced by Arg
B40: AAV-binding protein No. 79 (AVR2 + Lys338Asn, Asn487Asp) (receptor)
chain: B1 chain with D8V, K29N, C52G, E53K, N62K, G81S, E90K, R167S
B41: AAV-binding protein No. 73 (AVR2 + Val396Ala) (receptor)
chain: B1 chain with D8V, C52G, E53K, N62K, G81S, V87A, E90K, R167S, D178N
B42: AAV-binding protein No. 81 (AVR2 + Phe379Ser, Ser476Gly) (receptor)
chain: B1 chain with D8V, C52G, E53K, N62K, F70S, G81S, E90K, R167G, D178N
B43: AAV-binding protein No. 61 (AVR2 + Leu328Gln) (receptor)
chain: B1 chain with D8V, L19Q, C52G, E53K, N62K, G81S, E90K, R167S, D178N
B44: AAV-binding protein No. 84 (AVR2 + Pro336Gln, Gln386Arg, Asn487Asp) (receptor)
chain: B1 chain with D8V, P27Q, C52G, E53K, N62K, Q77R, G81S, E90K, R167S
B45: AAV-binding protein No. 65 (AVR2 + Val332Glu) (receptor)
chain: B1 chain with D8V, V23E, C52G, E53K, N62K, G81S, E90K, R167S, D178N
B46: AAV-binding protein No. 88 (AVR5e + Leu376Pro) (receptor)
chain: B1 chain with D8V, C52G, E53K, N62K, L67P, G81S
B47: AAV-binding protein No. 89 (AVR5e + Glu378Gly) (receptor)
chain: B1 chain with D8V, C52G, E53K, N62K, E69G, G81S
B48: AAV-binding protein No. 92 (AVR5e + Thr320Ala, Val381Asp) (receptor)
chain: B1 chain with D8V, T11A, C52G, E53K, N62K, V72D, G81S
B49: AAV-binding protein No. 85 (AVR5e + Val317Asp) (receptor)
chain: B1 chain with C52G, E53K, N62K, G81S
B50: AAV-binding protein No. 86 (AVR5e + Lys371Glu) (receptor)
chain: B1 chain with D8V, C52G, E53K, N62E, G81S
B51: AAV-binding protein No. 90 (AVR5e + Gly392Cys) (receptor)
chain: B1 chain with D8V, C52G, E53K, N62K, G81S, G83C
B52: AAV-binding protein No. 87 (AVR5e + Lys371Asn) (receptor)
chain: B1 chain with D8V, C52G, E53K, G81S

The target in one assay is T1, VLP2 (virus-like particles of AAV2) (AAV2, UniProt P03135 1-735; P03135 1-598; P03135 1-533).
T1 construct: Empty AAV2 capsid; background says about 60 protein molecules, VP1:VP2:VP3 = 1:1:10; Immobilised on the ELISA plate
T1 sequence (P03135 whole entry, chain 1 of 3): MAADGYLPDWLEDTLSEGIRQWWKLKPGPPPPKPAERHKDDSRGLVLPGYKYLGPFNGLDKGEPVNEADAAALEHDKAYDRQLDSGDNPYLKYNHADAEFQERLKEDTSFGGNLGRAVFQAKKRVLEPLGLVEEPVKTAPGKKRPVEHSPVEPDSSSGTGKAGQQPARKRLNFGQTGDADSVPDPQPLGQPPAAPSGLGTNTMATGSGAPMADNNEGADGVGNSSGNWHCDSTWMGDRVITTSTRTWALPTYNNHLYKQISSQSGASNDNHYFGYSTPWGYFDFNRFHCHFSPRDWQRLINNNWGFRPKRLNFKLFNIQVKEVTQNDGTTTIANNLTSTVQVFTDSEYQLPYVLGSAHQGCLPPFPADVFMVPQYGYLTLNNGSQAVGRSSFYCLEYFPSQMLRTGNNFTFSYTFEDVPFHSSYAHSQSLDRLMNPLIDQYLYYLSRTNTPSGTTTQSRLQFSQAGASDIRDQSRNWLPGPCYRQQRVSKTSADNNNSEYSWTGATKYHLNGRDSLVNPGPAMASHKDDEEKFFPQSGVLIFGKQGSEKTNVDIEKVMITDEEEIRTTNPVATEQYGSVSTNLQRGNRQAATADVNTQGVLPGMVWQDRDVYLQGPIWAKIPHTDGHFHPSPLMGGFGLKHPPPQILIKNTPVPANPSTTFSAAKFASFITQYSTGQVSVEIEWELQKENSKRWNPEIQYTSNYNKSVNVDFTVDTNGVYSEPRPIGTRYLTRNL
T1 sequence (P03135 139-735, tags left off, chain 2 of 3): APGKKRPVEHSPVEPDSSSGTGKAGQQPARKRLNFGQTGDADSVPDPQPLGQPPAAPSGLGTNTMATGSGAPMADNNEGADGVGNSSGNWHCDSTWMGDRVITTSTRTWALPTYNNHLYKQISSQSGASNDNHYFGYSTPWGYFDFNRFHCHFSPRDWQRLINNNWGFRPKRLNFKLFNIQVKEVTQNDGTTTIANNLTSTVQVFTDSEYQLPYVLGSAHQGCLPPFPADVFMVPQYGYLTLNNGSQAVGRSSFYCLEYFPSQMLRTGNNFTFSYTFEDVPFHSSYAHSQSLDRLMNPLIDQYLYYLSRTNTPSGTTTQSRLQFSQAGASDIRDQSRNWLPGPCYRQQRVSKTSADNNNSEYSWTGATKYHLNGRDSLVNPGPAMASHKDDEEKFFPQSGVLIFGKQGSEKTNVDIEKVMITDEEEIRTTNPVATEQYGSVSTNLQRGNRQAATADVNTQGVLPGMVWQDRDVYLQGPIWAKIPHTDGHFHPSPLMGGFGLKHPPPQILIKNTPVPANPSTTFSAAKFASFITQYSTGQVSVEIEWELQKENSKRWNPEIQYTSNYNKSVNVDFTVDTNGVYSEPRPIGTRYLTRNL
T1 sequence (P03135 203-735, chain 3 of 3): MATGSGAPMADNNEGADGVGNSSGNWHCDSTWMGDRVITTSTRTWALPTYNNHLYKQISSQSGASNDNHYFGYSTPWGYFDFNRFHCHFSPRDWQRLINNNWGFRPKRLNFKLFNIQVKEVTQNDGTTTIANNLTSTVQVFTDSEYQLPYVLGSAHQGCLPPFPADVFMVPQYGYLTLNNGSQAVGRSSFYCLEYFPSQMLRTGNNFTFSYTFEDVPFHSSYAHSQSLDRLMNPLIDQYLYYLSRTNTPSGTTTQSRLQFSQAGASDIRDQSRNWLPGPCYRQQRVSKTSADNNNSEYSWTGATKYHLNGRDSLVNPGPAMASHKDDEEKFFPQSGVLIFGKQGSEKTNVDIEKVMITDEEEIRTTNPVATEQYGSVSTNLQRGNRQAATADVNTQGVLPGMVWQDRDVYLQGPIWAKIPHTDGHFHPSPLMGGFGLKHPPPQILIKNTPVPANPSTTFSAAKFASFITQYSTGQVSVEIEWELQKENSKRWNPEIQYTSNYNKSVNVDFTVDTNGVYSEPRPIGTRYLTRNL
Nature of the assay: ELISA on VLP2; binding after pH 10.0 41.2°C 15 min / untreated.
In the case of B1, the “Residual activity [%]” value was determined as 51.5%.
Turning to B2, the “Residual activity [%]” value was determined as 56.5%.
B3: the “Residual activity [%]” value was found to be 38.8%.
On the same count and under the same terms, the value for B4 was 90.3%.
Same read-out and setting: the value for B5 was 86.3%; that for B6 was 36.3%.
Still for that read-out and setting: the value for B7 was 65.7%; that for B8 was 92.8%.
As to B9, the “Residual activity [%]” value was determined as 49.7%.
Same read-out and setting: the value for B10 was 63.5%.
On to B11, for which the “Residual activity [%]” value was 85%.
Same read-out and setting: the value for B12 was 79.7%; that for B13 was 62.1%; that for B14 was 81.4%.
Same read-out and setting: the value for B15 was 37.4%; that for B16 was 70.5%.
B17: the “Residual activity [%]” value worked out at 85.2%.
Same read-out and setting: the value for B18 was 63.9%.
For B19, the “Residual activity [%]” value was found to be 76.6%.

The target of the next assay is T1, VLP2 (virus-like particles of AAV2). Nature of the assay: ELISA on VLP2; binding after pH 3.0 51.1°C 15 min / untreated.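 Also: binding of the heat-treated AAV-binding protein to VLP2, expressed as a percentage of the binding of the same protein without heating.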
Procedure: (§1) The residual activity was calculated by dividing the binding activity of AAV-binding protein to VLP2 when the heat treatment was performed by the binding activity of AAV-binding protein to VLP2 when the heat treatment was not performed.
As for B20, the “Residual activity [%]” value came to 73.9%.
On the same count and under the same terms, the value for B21 was 26.1%; that for B22 was 32%; that for B23 was 36.4%.
The same measure, in the same setting: then B24, with 34.3%; and B25, with 32.8%.
Take B26: the “Residual activity [%]” value came to 80.2%.
Same read-out and setting: the value for B27 was 38.8%; that for B28 was 43.1%; that for B29 was 45.6%.
Same read-out and setting: then B30, with 31.8%.
The same measure, in the same setting: then B31, with 49.9%.
Consider B32, for which the “Residual activity [%]” value stood at 63.4%.
On the same count and under the same terms, then B33, with 71.9%; and B34, with 49.9%.
Still for that read-out and setting: the value for B35 was 55.9%; that for B36 was 70.6%; that for B37 was 41.4%.
Still for that read-out and setting: then B38, with 70.2%; and B39, with 70.4%; and B40, with 73.1%.
With B41, the “Residual activity [%]” value was found to be 48.9%.
For the molecule B42, the “Residual activity [%]” value was found to be 66.3%.
With B43, the “Residual activity [%]” value was 43.5%.
In the case of B44, the “Residual activity [%]” value stood at 48.4%.
Regarding B45, the “Residual activity [%]” value amounted to 29.4%.

The target is the same in a further assay. Nature of the assay: ELISA on VLP2; binding after pH 3.0 61.0°C 15 min / untreated.
Procedure: (3) The culture solution of (2) was centrifuged, and the obtained culture supernatant was diluted 32-fold with ultrapure water. The diluted culture solution in an amount of 60 μL and 60 μL of 0.1 M glycine hydrochloric acid buffer (pH 3.0) were mixed, and heat treatment and acid treatment were performed at 61.0° C. for 15 minutes.
as §1
As for B46, the “Residual activity [%]” value was found to be 41.7%.
The same measure, in the same setting: then B47, with 46.1%; and B48, with 52.4%; and B49, with 50.2%.
Same read-out and setting: the value for B50 was 41.6%; that for B51 was 53.3%; that for B52 was 56.5%.
